According to the supplement of paper PMC9233669:
Variants at the floor of the assay were thinned out.

Columns and labels:
biotinyl-Phe-oxazolone = assay: self-aminoacylation, catalytic enhancement (BFO) (fold over background); higher = more active; k-Seq, kA / k0A0; sequences stand for … in GGGAAUGGAUCCACAUCUACGAAUUC…UUCACUGCAGACUUGACGAAGCUG
Summary of the method: (§1)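 Mutagenized RNA pools with a 21-nt variable region (0.43 μM) were reacted with each biotinyl-aminoacyl-oxazolone at 2–1250 μM for 90 minutes at room temperature, in 50 μL HEPES/NaCl/KCl/MgCl2/CaCl2 buffer containing 5% acetonitrile at pH 6.9–7.0. RNA captured on streptavidin was quantified by triplicate qPCR and by Illumina sequencing. The fraction reacted for each sequence was fit to a pseudo-first-order model with bootstrapping, and catalytic enhancement is the median kA divided by the uncatalyzed rate, taken as the low-activity peak of a bimodal Gaussian fit.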

biotinyl-Ile-oxazolone = assay: self-aminoacylation, catalytic enhancement (BIO) (fold over background); higher = more active; k-Seq, kA / k0A0; sequences stand for … in GGGAAUGGAUCCACAUCUACGAAUUC…UUCACUGCAGACUUGACGAAGCUG
Summary of the method: as §1

biotinyl-Met-oxazolone = assay: self-aminoacylation, catalytic enhancement (BMO) (fold over background); higher = more active; k-Seq, kA / k0A0; sequences stand for … in GGGAAUGGAUCCACAUCUACGAAUUC…UUCACUGCAGACUUGACGAAGCUG
Summary of the method: as §1

biotinyl-Val-oxazolone = assay: self-aminoacylation, catalytic enhancement (BVO) (fold over background); higher = more active; k-Seq, kA / k0A0; sequences stand for … in GGGAAUGGAUCCACAUCUACGAAUUC…UUCACUGCAGACUUGACGAAGCUG
Summary of the method: as §1

biotinyl-Leu-oxazolone = assay: self-aminoacylation, catalytic enhancement (BLO) (fold over background); higher = more active; k-Seq, kA / k0A0; sequences stand for … in GGGAAUGGAUCCACAUCUACGAAUUC…UUCACUGCAGACUUGACGAAGCUG
Summary of the method: as §1

biotinyl-Trp-oxazolone = assay: self-aminoacylation, catalytic enhancement (BWO) (fold over background); higher = more active; k-Seq, kA / k0A0; sequences stand for … in GGGAAUGGAUCCACAUCUACGAAUUC…UUCACUGCAGACUUGACGAAGCUG
Summary of the method: as §1

Sequence | self-aminoacylation (biotinyl-Phe-oxazolone) | self-aminoacylation (biotinyl-Ile-oxazolone) | self-aminoacylation (biotinyl-Met-oxazolone) | self-aminoacylation (biotinyl-Val-oxazolone) | self-aminoacylation (biotinyl-Leu-oxazolone) | self-aminoacylation (biotinyl-Trp-oxazolone)
AUUAACCUGGUCAUCGGGUGA [Fam2.1 aminoacylation ribozyme variant] | 53.1 | 4.26 | 8.87 | 4.72 | 9.83 | 11
AAGUGUGCUAAUAGUCCCAAG [Fam3.1 aminoacylation ribozyme variant] | 3.77 | 1.34 | 1.17 | 1.28 | 1.24 | 2.02
CUACUUCAAACAAUCUGGCUG [Fam1A.1 aminoacylation ribozyme variant] | 0.69 | 0.963 | 0.844 | 0.963 | 1.02 | 0.664
AUUACUCGGGUCAUCGAGUGA [Fam2.1 aminoacylation ribozyme variant] | 28.6 | 3.66 | 6.51 | 3.33 | 8.09 | 6.64
CUACUUCAAACAAUCGGAUUG [Fam1A.1 aminoacylation ribozyme variant] | 2.03 | 0.999 | 0.953 | 0.89 | 0.719 | 1.3
CUACUUCAGACAAUCGGUCUG [Fam1A.1 aminoacylation ribozyme variant] | 1.19 | 0.782 | 0.758 | 0.822 | 0.807 | 0.857
AUUCAUCUAGGUCAUCCGGUG [Fam2.2 aminoacylation ribozyme variant] | 48.9 | 4.53 | 6.61 | 4.65 | 8.6 | 6.87
AUUACCCUGGUCAACGGGUGA [Fam2.1 aminoacylation ribozyme variant] | 46.6 | 4.83 | 9.43 | 4.61 | 9.68 | 10.8
AAGUUUGCUAAUUGUCGCAAG [Fam3.1 aminoacylation ribozyme variant] | 1.37 | 0.834 | 0.788 | 0.846 | 0.764 | 1.06
AUUACCCGGGUCACCGAGUGA [Fam2.1 aminoacylation ribozyme variant] | 145 | 6.79 | 19.3 | 8.28 | 21.4 | 19.5
AGUCACCAAGGUCAUCGGGUG [Fam2.2 aminoacylation ribozyme variant] | 51.2 | 4.38 | 6.59 | 4.7 | 7.67 | 7.87
AUUCACCUCUGUCAUCGGGUG [Fam2.2 aminoacylation ribozyme variant] | 54.5 | 3.8 | 7.32 | 4.06 | 10.1 | 7.31
AUAACCCUGGUCAUCGAGGGA [Fam2.1 aminoacylation ribozyme variant] | 2.14 | 1.52 | 1.45 | 1.43 | 2.12 | 0.626
AUUCACCGAGGUCAUCGGGGG [Fam2.2 aminoacylation ribozyme variant] | 7.01 | 2.59 | 2.95 | 2.71 | 2.65 | 3.16
AAGUUUGCUAAUAGACGCAAG [Fam3.1 aminoacylation ribozyme variant] | 0.87 | 0.526 | 0.477 | 0.587 | 0.459 | 0.574
AAGUUUGCUAAUAGUGGCGAG [Fam3.1 aminoacylation ribozyme variant] | 1.2 | 0.939 | 0.875 | 0.88 | 1.09 | 0.531
CUACUUCAAACAAUCGGUUUU [Fam1A.1 aminoacylation ribozyme variant] | 2.35 | 1.31 | 0.931 | 1.26 | 1.1 | 1.44
AAGUUUGGUAAUACUCGCAAG [Fam3.1 aminoacylation ribozyme variant] | 1.07 | 1.06 | 0.998 | 1.04 | 0.673 | 0.719
AUGCUCCUAGGUCAUCGGGUG [Fam2.2 aminoacylation ribozyme variant] | 37.6 | 5.26 | 7.47 | 4.4 | 8.92 | 7.13
AUCCACGUAGGUCAUCGGGUG [Fam2.2 aminoacylation ribozyme variant] | 37.4 | 3.4 | 4.61 | 4.96 | 4.88 | 4.86
CCACACUUCAUGCAACCGGUC [Fam1B.1 aminoacylation ribozyme variant] | 0.916 | 0.996 | 0.943 | 0.981 | 0.795 | 0.752
ACACACUUCAGGCAAUCGGUC [Fam1B.1 aminoacylation ribozyme variant] | 1.75 | 1.56 | 1.38 | 1.44 | 1.42 | 1.84
CCACACUUCAAGCAAUCGGAU [Fam1B.1 aminoacylation ribozyme variant] | 0.817 | 1.03 | 0.886 | 1.38 | 0.789 | 1.63
AUUCACCUAGGUCAUCGGGCG [Fam2.2 aminoacylation ribozyme variant] | 13.8 | 4.76 | 7.58 | 4.82 | 10.3 | 5.66
CUACUUCAAAGAAUCGGUCUU [Fam1A.1 aminoacylation ribozyme variant] | 2.46 | 1.29 | 0.926 | 1.06 | 1.14 | 2.13
AAGUUUGGUAAUAGUCGGAAG [Fam3.1 aminoacylation ribozyme variant] | 1.11 | 0.893 | 0.771 | 0.815 | 0.717 | 1.08

Sequence | self-aminoacylation (biotinyl-Phe-oxazolone) | self-aminoacylation (biotinyl-Ile-oxazolone) | self-aminoacylation (biotinyl-Met-oxazolone) | self-aminoacylation (biotinyl-Val-oxazolone) | self-aminoacylation (biotinyl-Leu-oxazolone) | self-aminoacylation (biotinyl-Trp-oxazolone)
AUAACCCUGGUCAACGAGUGA [Fam2.1 aminoacylation ribozyme variant] | 31.1 | 3.32 | 6.45 | 3.33 | 5.91 | 6.89
AUCCACCGAGGUCAUCGGGUG [Fam2.2 aminoacylation ribozyme variant] | 125 | 5.2 | 9.91 | 6.67 | 13.4 | 7.06
AAGUUUGCUAAUAGUGGCAAU [Fam3.1 aminoacylation ribozyme variant] | 1.43 | 1.08 | 1.16 | 1.16 | 0.961 | 0.811
AGUACCCUGGUCAUUGAGUGA [Fam2.1 aminoacylation ribozyme variant] | 37.2 | 3.86 | 6.37 | 3.39 | 7.4 | 9.07
AAGUUUCCGAAUAGUCGCAAG [Fam3.1 aminoacylation ribozyme variant] | 2.81 | 2.01 | 1.73 | 1.79 | 1.7 | 1.87
CUUACCCUGGUCAUAGAGUGA [Fam2.1 aminoacylation ribozyme variant] | 24.2 | 2.86 | 6.37 | 2.83 | 5.85 | 7.46
AUUGCCCUGGUCAGCGAGUGA [Fam2.1 aminoacylation ribozyme variant] | 36.7 | 3.29 | 5.91 | 3.76 | 5.65 | 6.28
AUUCACCUUCGUCAUCGGGUG [Fam2.2 aminoacylation ribozyme variant] | 14.9 | 2.12 | 2.3 | 2.38 | 3.28 | 2.79
AUUCUCCUAGGUCAUCGGGUG [Fam2.2 aminoacylation ribozyme variant] | 82.4 | 8.11 | 13 | 8.06 | 17.7 | 12.3
AUUACCCUGGACACCGAGUGA [Fam2.1 aminoacylation ribozyme variant] | 4.62 | 2.15 | 4.14 | 1.83 | 3.5 | 3.99
AAUCACCUAGGUCAUCGGGAG [Fam2.2 aminoacylation ribozyme variant] | 1.94 | 1.67 | 1.89 | 2.17 | 1.51 | 1.55
CCACCCUUUAAGCAAUCGGUC [Fam1B.1 aminoacylation ribozyme variant] | 1.34 | 1.16 | 0.892 | 1.21 | 0.983 | 0.888
CCUCACUUCAAGCAAUUGGUC [Fam1B.1 aminoacylation ribozyme variant] | 1.67 | 0.654 | 0.562 | 0.606 | 0.506 | 0.673
AUUCACCUAGGUCAGGGGGUG [Fam2.2 aminoacylation ribozyme variant] | 13.9 | 1.78 | 2.67 | 1.8 | 3.4 | 2.55
CAGUUUGCUAAUAGUUGCAAG [Fam3.1 aminoacylation ribozyme variant] | 1.55 | 1.53 | 1.44 | 1.23 | 1.5 | 1.18
AUUAACCUGGUGAUCGAGUGA [Fam2.1 aminoacylation ribozyme variant] | 25.7 | 3.62 | 6.03 | 3.16 | 6.66 | 8.53
AUUCCCCUGGUAAUCGAGUGA [Fam2.1 aminoacylation ribozyme variant] | 37.7 | 3.09 | 6.36 | 3.28 | 5.9 | 7.35
AUUCCCCUAGGUCAUCAGGUG [Fam2.2 aminoacylation ribozyme variant] | 29.4 | 6.44 | 8.46 | 6.96 | 8.19 | 7.46
CUUCACCAAGGUCAUCGGGUG [Fam2.2 aminoacylation ribozyme variant] | 59.9 | 4.21 | 8.17 | 5.4 | 9.25 | 7.64
AUUCCCCUAGGCCAUCGGGUG [Fam2.2 aminoacylation ribozyme variant] | 119 | 8.31 | 13.6 | 9.59 | 19.3 | 12.5
CCACACUUCAAGCAAACGGUG [Fam1B.1 aminoacylation ribozyme variant] | 10.7 | 3.12 | 3.91 | 3.33 | 5.1 | 4.31
AUGAUUGCUAAUAGUCGCAAG [Fam3.1 aminoacylation ribozyme variant] | 2.06 | 1.34 | 1.67 | 1.24 | 1.53 | 1.61
CUACUUCAUACAAUUGGUCUG [Fam1A.1 aminoacylation ribozyme variant] | 0.656 | 0.743 | 0.755 | 0.849 | 0.731 | 0.453
AUUCACUUAGGGCAUCGGGUG [Fam2.2 aminoacylation ribozyme variant] | 24.5 | 2.91 | 3.03 | 2.72 | 3.98 | 3.48
CCACACUUCAAGUAAUCGGUA [Fam1B.1 aminoacylation ribozyme variant] | 0.884 | 1.01 | 1.09 | 0.929 | 1.17 | 0.708
